Results taken from publication PMC11745410.

Molecular target: TAX9-loaded HLA-A*02:01/β2m
Experiment: SPR

Substance	fold decrease in KD against TAPBPR^WT (so in the source) [fold]
TAPBPR^∆ALAS (A29-S32 deletion) (from UniProt Q9BX59 22-405) (natural protein)	3
TAPBPR^∆G24-R36 (G24-R36 deletion) (from UniProt Q9BX59 22-405) (natural protein)	3
